Reference: article PMC12551710, “The hook-like adaptor and cargo-binding (HAC) domain in the kinesin-2 tail enables adaptor assembly and cargo recognition” (Science Advances, 2025)

T1: KIF3B C-terminal region (BCT), residues 475 to 747 (Mus musculus, UniProt Q61771 475-747)
T1 construct: KIF3B, Mus musculus, NCBI NP_032470.3, C-terminal region residues 475 to 747 (BCT), without expression tags; residues 580 to 675 are resolved; also called KIF3B tail; source: E. coli BL21 (DE3), coexpressed with the KIF3A tail from pETDuet-1, purified within the reconstituted complex
T1 sequence (looked up): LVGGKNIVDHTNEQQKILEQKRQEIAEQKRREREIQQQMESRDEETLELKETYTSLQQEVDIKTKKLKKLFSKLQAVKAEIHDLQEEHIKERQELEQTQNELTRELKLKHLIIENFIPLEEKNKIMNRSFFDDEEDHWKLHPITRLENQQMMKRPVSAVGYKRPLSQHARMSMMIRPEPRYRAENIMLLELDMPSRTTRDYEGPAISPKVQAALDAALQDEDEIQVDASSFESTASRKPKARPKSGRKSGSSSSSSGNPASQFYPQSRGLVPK

B1: KIF3A C-terminal region (ACT), residues 481 to 701 (domain or fragment, Mus musculus, UniProt P28741 481-701, looked up)
chain: VIVGGVDLLAKAEEQEKLLEESNMELEERRRRAEQLRKELEEKEQERLDIEEKYTSLQEEAQGKTKKLKKVWTMLMAAKSEMADLQQEHQREIEGLLENIRQLSRELRLQMLIIDNFIPQDYQEMIENYVHWNEDIGEWQLKCVAYTGNNMRKQTPVPDKKERDPFEVDLSHVYLAYTEESLRQSLMKLERPRTSKGKARPKMGRRKRSAKPETVIDSLLQ
notes: KIF3A, Mus musculus, NCBI NP_032469.2, C-terminal region residues 481 to 701 (ACT); also called KIF3A tail; source: E. coli BL21 (DE3), coexpressed with the KIF3B tail from pETDuet-1, purified within the reconstituted complex
B2: ARM domain of APC (APCARM), residues 338 to 1010 (domain or fragment, Mus musculus, UniProt Q61315 338-1010, looked up)
chain: SQDSCISMRQSGCLPLLIQLLHGNDKDSVLLGNSRGSKEARARASAALHNIIHSQPDDKRGRREIRVLHLLEQIRAYCETCWEWQEAHEQGMDQDKNPMPAPVEHQICPAVCVLMKLSFDEEHRHAMNELGGLQAIAELLQVDCEMYGLTNDHYSVTLRRYAGMALTNLTFGDVANKATLCSMKGCMRALVAQLKSESEDLQQVIASVLRNLSWRADVNSKKTLREVGSVKALMECALEVKKESTLKSVLSALWNLSAHCTENKADICAVDGALAFLVGTLTYRSQTNTLAIIESGGGILRNVSSLIATNEDHRQILRENNCLQTLLQHLKSHSLTIVSNACGTLWNLSARNPKDQEALWDMGAVSMLKNLIHSKHKMIAMGSAAALRNLMANRPAKYKDANIMSPGSSLPSLHVRKQKALEAELDAQHLSETFDNIDNLSPKASHRSKQRHKQNLYGDYAFDANRHDDSRSDNFNTGNMTVLSPYLNTTVLPSSSSSRGSLDSSRSEKDRSLERERGIGLSAYHPTTENAGTSSKRGLQITTTAAQIAKVMEEVSAIHTSQDDRSSASTTEFHCVADDRSAARRSSASHTHSNTYNFTKSENSNRTCSMPYAKVEYKRSSNDSLNSVTSSDGYGKRGQMKPSVESYSEDDESKFCSYGQYPADLAHKIHSAN
notes: adenomatous polyposis coli (APC), Mus musculus, NCBI AAB59632.1, ARM domain residues 338 to 1010, without expression tags; also called APC ARM domain; source: E. coli BL21 (DE3), purified; E. coli lysate in the pull-down

Assays:
Details in all cases: both partners purified
[1] = target: B2; assay: cryo-EM structure; ABK-APCARM complex, 0.75 mg/ml and 0.375 mg/ml (tilted stage 30° and 40°), single-particle, merged datasets
[2] = target: T1, KIF3B C-terminal region (BCT), residues …; assay: cryo-EM structure; ABK complex (KIF3A 481-701, KIF3B 475-747, KAP3 1-693), 0.75 mg/ml, single-particle, two maps
[3] = target: T2, KIF3A/B/KAP3 cargo-binding domain complex (ABK), wild type (Mus musculus, UniProt P28741 481-701; Q61771 475-747; P70188-1 1-693); assay: SPR; Biacore T200; APCARM immobilised on CM5 chip at around 200 RU by amine coupling; kinesin-2 complexes injected at 6.25 to 50 nM, 30 μl/min, 15°C; 20 mM Hepes pH 8.0, 150 mM NaCl, 1 mM dithiothreitol, 0.005% Tween 20; KD from Scatchard plot analysis
T2 construct: KIF3A, Mus musculus, NCBI NP_032469.2, C-terminal region residues 481 to 701 (ACT); KIF3B, Mus musculus, NCBI NP_032470.3, C-terminal region residues 475 to 747 (BCT); KAP3A, Mus musculus, NCBI NP_001292572.1, residues 1 to 693; The His tag is named on the complexes of the SPR experiment; also called ABK (WT); KIF3A/B tail/KAP3 complex; source: E. coli BL21 (DE3), reconstituted and purified (size …)
T2 sequence (P70188 1-693, one chain of several): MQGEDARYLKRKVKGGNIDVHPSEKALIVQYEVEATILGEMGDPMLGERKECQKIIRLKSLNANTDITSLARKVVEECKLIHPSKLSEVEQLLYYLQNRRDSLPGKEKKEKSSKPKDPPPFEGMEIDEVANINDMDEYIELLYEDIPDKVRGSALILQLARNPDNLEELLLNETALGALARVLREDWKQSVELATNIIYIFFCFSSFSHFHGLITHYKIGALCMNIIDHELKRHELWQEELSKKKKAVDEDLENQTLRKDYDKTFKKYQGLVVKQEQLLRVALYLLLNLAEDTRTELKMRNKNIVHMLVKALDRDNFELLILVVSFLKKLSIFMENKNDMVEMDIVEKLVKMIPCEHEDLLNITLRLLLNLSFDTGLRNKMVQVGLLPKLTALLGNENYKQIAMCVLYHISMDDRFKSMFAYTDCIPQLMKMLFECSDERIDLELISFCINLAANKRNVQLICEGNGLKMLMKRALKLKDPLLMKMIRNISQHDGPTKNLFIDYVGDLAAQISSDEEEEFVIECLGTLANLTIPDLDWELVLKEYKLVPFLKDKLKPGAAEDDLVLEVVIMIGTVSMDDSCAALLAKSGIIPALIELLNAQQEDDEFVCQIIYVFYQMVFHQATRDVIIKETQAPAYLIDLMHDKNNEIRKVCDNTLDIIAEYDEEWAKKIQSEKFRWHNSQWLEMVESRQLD

| binding result [1] | binding result [2] | Kd [3] [nM] | Binder |
| --- | --- | --- | --- |
| binds | binds | – | B1 |
| – | – | 34.7 ± 0.6 | B2 |
